# Values of other authors, collected in patent US7468440B2, “Malonamides and malonamide derivatives as modulators of chemokine receptor activity” (Bristol-Myers Squibb Company, priority 2003, dated 2008).
# B1: interferon b-1b: interferon b-1b, effective therapy in human multiple sclerosis (protein, UniProt P01574 22-187, looked up, variant C17S)
# Interferon beta: MSYNLLGFLQRSSNFQSQKLLWQLNGRLEYCLKDRMNFDIPEEIKQLQQFQKEDAALTIYEMLQNIFAIFRQDSSSTGWNETIVENLLANVYHQINHLKTVLEEKLEKEDFTRGKLMSSLHLKRYYGRILHYLKAKEYSHCAWTIVRVEILRNFYFINRLTGYLRN
# modifications: interferon beta-1b
# Test system: MCP-1 expression
# Settings: human multiple sclerosis, effective therapy
molecule,measurement,value
B1,effect on MCP-1 expression in peripheral blood mononuclear cells,reduces MCP-1 expression
